PMC9163188, “USP53 plays an antitumor role in hepatocellular carcinoma through deubiquitination of cytochrome c” (Oncogenesis, 2022)
Each block holds one binder with its values, some of them ahead of it.

Tests used:
[1] = biological target: T1, Flag-USP53 (of the GST pull-down) (UniProt Q70EK8 1-1073); experiment: pull-down; purified GST-HA-CYCS on glutathione agarose, Flag-USP53 added; same method as for GST-HA-USP53 with Flag-CYCS; conditions: both partners purified
T1 construct: ubiquitin-specific peptidase 53 (USP53); If it came from transfected HEK-293T cells it would be the same construct as m1
T1 sequence (looked up): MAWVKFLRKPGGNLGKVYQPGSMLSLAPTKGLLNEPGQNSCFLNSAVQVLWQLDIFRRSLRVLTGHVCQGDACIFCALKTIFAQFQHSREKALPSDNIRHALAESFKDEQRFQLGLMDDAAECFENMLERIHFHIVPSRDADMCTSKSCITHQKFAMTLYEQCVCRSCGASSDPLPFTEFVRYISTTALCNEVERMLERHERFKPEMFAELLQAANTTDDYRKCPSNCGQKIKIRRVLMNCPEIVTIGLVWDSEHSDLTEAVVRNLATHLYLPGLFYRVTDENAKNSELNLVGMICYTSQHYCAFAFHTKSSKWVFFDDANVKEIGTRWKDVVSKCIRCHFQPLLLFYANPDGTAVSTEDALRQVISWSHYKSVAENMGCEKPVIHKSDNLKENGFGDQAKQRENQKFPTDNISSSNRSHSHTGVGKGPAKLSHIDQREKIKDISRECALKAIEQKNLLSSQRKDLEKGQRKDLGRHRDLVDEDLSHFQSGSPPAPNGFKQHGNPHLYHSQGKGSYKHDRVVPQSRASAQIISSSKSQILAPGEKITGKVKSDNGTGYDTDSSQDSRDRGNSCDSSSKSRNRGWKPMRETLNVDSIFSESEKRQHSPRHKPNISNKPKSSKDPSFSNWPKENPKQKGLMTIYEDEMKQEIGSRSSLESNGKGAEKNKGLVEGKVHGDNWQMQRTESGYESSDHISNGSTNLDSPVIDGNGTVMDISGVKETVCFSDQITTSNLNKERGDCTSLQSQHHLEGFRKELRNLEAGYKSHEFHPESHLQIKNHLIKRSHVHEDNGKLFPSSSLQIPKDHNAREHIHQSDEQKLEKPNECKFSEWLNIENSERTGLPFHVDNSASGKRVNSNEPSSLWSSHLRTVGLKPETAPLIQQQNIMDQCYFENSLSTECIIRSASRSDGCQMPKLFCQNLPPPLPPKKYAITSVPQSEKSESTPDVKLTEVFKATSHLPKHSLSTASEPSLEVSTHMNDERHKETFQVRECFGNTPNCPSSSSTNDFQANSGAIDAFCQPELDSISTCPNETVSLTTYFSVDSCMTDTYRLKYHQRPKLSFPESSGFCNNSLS

[2] = biological target: T2, GST-HA-USP53 (UniProt Q70EK8 1-1073); experiment: pull-down; about 100 µg GST-HA-USP53 (or GST-HA) on 50 µL glutathione agarose, 3 washes with PBST, about 100 µg Flag-CYCS fusion protein added, overnight at 4 °C; eluted with 10 mM glutathione in PBS pH 8.0, immunoblot; conditions: both partners purified
T2 construct: also called GST-HA-USP53 fusion protein; source: E. coli, purified
T2 sequence (looked up): T1 sequence (looked up)

binding result [1]: binds
B1: GST-HA-CYCS (natural protein)
chain: not shown
notes: cytochrome c (CYCS); plasmid provided by …; also called GST-HA-CYCS fusion protein; source: purified (same method as for GST-HA-USP53: E. coli)

binding result [2]: binds
B2: Flag-CYCS (natural protein)
chain: not shown
notes: cytochrome c (CYCS); plasmid provided by …; also called Flag-CYCS fusion protein; source: E. coli (plasmid transfected into E. coli)
